# Paper PMC9910500
# Target: endogenous p32 (ASF/SF2 splicing factor-associated protein) (human (endogenous in HEK293T)) (UniProt Q07021)
# Experiment: co-IP
# Chain of UniProt Q07021 (Q07021 74-282): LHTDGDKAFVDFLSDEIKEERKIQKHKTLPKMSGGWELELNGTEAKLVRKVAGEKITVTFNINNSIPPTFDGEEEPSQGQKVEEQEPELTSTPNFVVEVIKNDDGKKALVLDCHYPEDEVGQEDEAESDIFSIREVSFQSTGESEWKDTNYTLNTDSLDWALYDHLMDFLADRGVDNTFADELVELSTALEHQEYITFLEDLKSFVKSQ
substance,measurement,value
RNA polymerase II (RNAPII) (complex),increase of RNAPII co-precipitated with p32 in the presence of Tat,50%
